Assay results taken from publication PMC9127584 (2022).
Values joined by “and” are separate entries in the source; they are usually repeats but may differ in a detail not shown here. Equal entries are not always repeated.

B1: AtTAF4 180-254 (protein)
chain: NVNPINRNPKQVPFAALLPTLMNQLDKDRALQLRTLYARLKKNEIPKEGFTRHMKDIVGDQMLRMAVSKLQQVNY
B2: AtRCD1_RST (protein)
chain: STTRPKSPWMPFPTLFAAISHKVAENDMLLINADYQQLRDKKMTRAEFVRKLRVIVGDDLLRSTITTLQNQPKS
B3: AtTAF4_RST (protein)
chain: NPINRNPKQVPFAALLPTLMNQLDKDRALQLRTLYARLKKNEIPKEGFTRHMKDIVGDQMLRMAVSKLQQVNY
B4: HsTAF4_TAFH (protein)
chain: TSSAATETMENVKKCKNFLSTLIKLASSGKQSTETAANVKELVQNLLDGKIEAEDFTSRLYRELNSSPQPYLVPFLKRSLPALRQLTPDSAAFIQQS

Key:
[1] = target: DREB2A 243-272 (Arabidopsis thaliana) (UniProt O82132); assay: ITC; details: cited from earlier work
[2] = target: ANAC013 254-274 (Arabidopsis thaliana) (UniProt F4IED2); assay: ITC; details: cited from earlier work
DREB2A 243-272 = target: T1, DREB2A 243-272 (Arabidopsis thaliana, UniProt O82132); assay: ITC
T1 chain: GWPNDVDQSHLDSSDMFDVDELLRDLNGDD

ANAC013 254-274 = target: T2, ANAC013 254-274 (Arabidopsis thaliana, UniProt F4IED2); assay: ITC
T2 chain: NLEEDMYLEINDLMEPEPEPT

DREB2A = target: T3, DREB2A (Arabidopsis thaliana (Mouse-ear cress), UniProt O82132); assay: ITC 25 C
T3 chain: T1 chain

ANAC013 = target: T4, ANAC013 (Arabidopsis thaliana (Mouse-ear cress), UniProt F4IED2); assay: ITC 25 C
T4 chain: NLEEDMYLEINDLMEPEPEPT

| Molecule | Kd [1] [nM] | Kd (DREB2A) [nM] | Kd (ANAC013) [nM] | also measured |
| --- | --- | --- | --- | --- |
| RCD1 499-572 (from UniProt Q8RY59) | 16 | – | – | Kd [2]: 9 nM |
| RCD1 RST (from UniProt Q8RY59) | 16 | – | – | – |
| B1 | – | – | – | Kd (DREB2A 243-272): 740 nM and 1050 nM; Kd (ANAC013 254-274): 1080 nM |
| B2 | – | 16 | 9 | – |
| B3 | – | 740 | 1080 | – |
| B4 | – | 110 | – | – |
